In experiment [1] the target is T1, FZD10 cysteine-rich domain (CRD), MYC-tagged and GPI-anchored on CHO cells (human, UniProt Q9ULW2 30-156, GPI anchor).
T1 construct: also called FZD10 CRD; CHO-myc-FZDGPI; not shown: MYC tag and GPI anchor signal
T1 sequence: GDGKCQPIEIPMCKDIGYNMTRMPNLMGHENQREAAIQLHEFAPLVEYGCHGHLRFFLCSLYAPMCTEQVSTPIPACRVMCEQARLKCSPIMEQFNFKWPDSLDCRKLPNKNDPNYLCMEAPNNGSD
In words: flow cytometry, CHO-CRD cells. (In general: Flow cytometry measures light scatter and fluorescence of single cells or particles in a stream.)

Experiment [2] addresses FZD2 cysteine-rich domain (CRD), MYC-tagged and GPI-anchored on CHO cells (human, UniProt Q14332 35-161). In words: flow cytometry, CHO-CRD cells.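 Further: flow cytometry of Fab binding to CHO cells overexpressing a Frizzled CRD, with binding defined as median fluorescence over twice that of CHO cells lacking any Frizzled CRD.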
Protocol: (§1) Binding was measured via flow cytometry analysis of CHO cells overexpressing CRD of FZD1, FZD2, FZD3, FZD4, FZD5, FZD6, FZD7, FZD8, FZD9 or FZD10. Median fluorescence values are shown.
The target of experiment [3] is T2, FZD3 cysteine-rich domain (CRD), MYC-tagged and GPI-anchored on CHO cells (human, UniProt Q9NPG1 24-150, GPI anchor).
T2 construct: domain: cysteine-rich domain (CRD); also called FZD3 CRD; CHO-myc-FZDGPI; not shown: MYC tag and GPI anchor signal
T2 sequence (looked up): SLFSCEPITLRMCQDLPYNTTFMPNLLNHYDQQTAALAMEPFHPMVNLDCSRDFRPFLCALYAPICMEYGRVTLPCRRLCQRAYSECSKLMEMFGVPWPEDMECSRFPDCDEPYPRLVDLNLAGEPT
Kind of experiment: flow cytometry, CHO-CRD cells.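 Further: flow cytometry of Fab binding to CHO cells overexpressing a Frizzled CRD, with binding defined as median fluorescence over twice that of CHO cells lacking any Frizzled CRD.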

The target of experiment [4] is T3, FZD6 cysteine-rich domain (CRD), MYC-tagged and GPI-anchored on CHO cells (human, UniProt O60353 20-146, GPI anchor).
T3 construct: also called FZD6 CRD; CHO-myc-FZDGPI; not shown: MYC tag and GPI anchor signal
T3 sequence: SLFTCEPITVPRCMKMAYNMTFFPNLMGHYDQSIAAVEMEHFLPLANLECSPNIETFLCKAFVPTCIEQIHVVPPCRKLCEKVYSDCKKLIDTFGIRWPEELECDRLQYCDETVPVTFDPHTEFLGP
Kind of experiment: flow cytometry, CHO-CRD cells.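 Further: flow cytometry of Fab binding to CHO cells overexpressing a Frizzled CRD, with binding defined as median fluorescence over twice that of CHO cells lacking any Frizzled CRD.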

The target of experiment [5] is T4, FZD9 cysteine-rich domain (CRD), MYC-tagged and GPI-anchored on CHO cells (human, UniProt O00144 35-161, GPI anchor).
T4 construct: also called FZD9 CRD; CHO-myc-FZDGPI; not shown: MYC tag and GPI anchor signal
T4 sequence: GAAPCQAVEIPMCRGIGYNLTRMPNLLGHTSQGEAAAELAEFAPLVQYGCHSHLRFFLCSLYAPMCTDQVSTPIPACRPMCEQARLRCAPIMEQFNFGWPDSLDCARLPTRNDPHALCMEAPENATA
In words: flow cytometry, CHO-CRD cells.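 Further: flow cytometry of Fab binding to CHO cells overexpressing a Frizzled CRD, with binding defined as median fluorescence over twice that of CHO cells lacking any Frizzled CRD.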

Experiment [6] addresses FZD1 cysteine-rich domain (CRD), MYC-tagged and GPI-anchored on CHO cells (human). In words: flow cytometry, CHO-CRD cells.
Protocol: as §1
Experiment [7] has as its target T5, FZD5 cysteine-rich domain (CRD), MYC-tagged and GPI-anchored on CHO cells (human, UniProt Q13467 29-156, GPI anchor).
T5 construct: also called FZD5 CRD; CHO-myc-FZDGPI; not shown: MYC tag and GPI anchor signal
T5 sequence: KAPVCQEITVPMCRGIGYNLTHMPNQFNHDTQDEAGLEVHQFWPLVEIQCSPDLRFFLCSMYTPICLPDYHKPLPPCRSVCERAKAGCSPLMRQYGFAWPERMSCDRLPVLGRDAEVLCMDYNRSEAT
Kind of experiment: flow cytometry, CHO-CRD cells.

Experiment [8] has as its target T6, FZD8 cysteine-rich domain (CRD), MYC-tagged and GPI-anchored on CHO cells (human, UniProt Q498S8 31-155 (rat entry), GPI anchor).
T6 construct: also called FZD8 CRD; CHO-myc-FZDGPI; not shown: MYC tag and GPI anchor signal
T6 sequence: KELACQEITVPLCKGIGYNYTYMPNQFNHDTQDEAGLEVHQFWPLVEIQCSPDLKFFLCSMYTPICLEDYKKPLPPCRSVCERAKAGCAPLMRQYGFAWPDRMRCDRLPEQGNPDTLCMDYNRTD
In words: flow cytometry, CHO-CRD cells.

The target in experiment [9] is T7, FZD4 cysteine-rich domain (CRD), MYC-tagged and GPI-anchored on CHO cells (human, UniProt Q9ULV1 42-167, GPI anchor).
T7 construct: also called FZD4 CRD; CHO-myc-FZDGPI; not shown: MYC tag and GPI anchor signal
T7 sequence: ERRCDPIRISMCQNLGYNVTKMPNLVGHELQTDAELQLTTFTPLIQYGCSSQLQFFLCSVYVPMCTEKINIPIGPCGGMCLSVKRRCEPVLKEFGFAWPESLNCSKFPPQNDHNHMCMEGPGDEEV
Kind of experiment: flow cytometry, CHO-CRD cells.

Experiment [10] concerns the target FZD7 cysteine-rich domain (CRD), MYC-tagged and GPI-anchored on CHO cells (human, UniProt O75084 45-169). In words: flow cytometry, CHO-CRD cells.
Protocol: as §1
Experiment [11] deals with T1, FZD10 cysteine-rich domain (CRD), …. Kind of experiment: immunofluorescence, CHO-CRD cells.
The target of experiment [12] is T2, FZD3 cysteine-rich domain (CRD), …. In words: immunofluorescence, CHO-CRD cells.
In experiment [13] the target is T3, FZD6 cysteine-rich domain (CRD), …. Kind of experiment: immunofluorescence, CHO-CRD cells.
The target in experiment [14] is T4, FZD9 cysteine-rich domain (CRD), …. In words: immunofluorescence, CHO-CRD cells.
For experiment [15], the target named is T7, FZD4 cysteine-rich domain (CRD), …. In words: immunofluorescence, CHO-CRD cells.

B1: Fab-2898 (Fab, V domains shown)
VH: EVQLVESGGGLVQPGGSLRLSCAASGFNIYSYSMHWVRQAPGKGLEWVASIYSSSGSTSYADSVKGRFTISADTSKNTAYLQMNSLRAEDTAVYYCARAVWGLDYWGQGTLVTVSS
VL: DIQMTQSPSSLSASVGDRVTITCRASQSVSSAVAWYQQKPGKAPKLLIYSASSLYSGVPSRFSGSRSGTDFTLTISSLQPEDFATYYCQQWWGYYSLITFGQGTKVEIK
notes: Fab; also called Fv-2898
Consider B1, for which the median fluorescence in [1] was determined as 4.26; in [2] it was 13.5; in experiment [3], 5.05; in experiment [4] it was 4.49; in experiment [5], 4.57; in experiment [6], 14.9. Moreover, the median fluorescence stood at 32 in [7], 12.7 in experiment [8], 6.26 in experiment [9] and 36.9 in experiment [10]. Further, the binding result in experiment [11], in experiment [12], in [13], in [14] and in [15] was “no binding” throughout.

B2: Fab-2913 (Fab, V domains shown)
VH: EVQLVESGGGLVQPGGSLRLSCAASGFNISYSSIHWVRQAPGKGLEWVASIYPYSSSTSYADSVKGRFTISADTSKNTAYLQMNSLRAEDTAVYYCARYGYYGLDYWGQGTLVTVSS
VL: DIQMTQSPSSLSASVGDRVTITCRASQSVSSAVAWYQQKPGKAPKLLIYSASSLYSGVPSRFSGSRSGTDFTLTISSLQPEDFATYYCQQWGVSHYLFTFGQGTKVEIK
notes: Fab; also called Fv-2913
On to B2, for which the median fluorescence was 3.75 in experiment [1]; 14.1 in experiment [2]; 4.61 in experiment [3]; 3.82 in experiment [4]; 3.79 in experiment [5]; 17.5 in experiment [6]. For the same molecule, the median fluorescence in experiment [7] came out at 27.1; in experiment [9], 5.57; in experiment [10], 34.9. Besides, the binding result in experiment [11], in experiment [12], in [13], in experiment [14] and in [15] was “no binding” each time.

B3: Fab-2914 (Fab, V domains shown)
VH: EVQLVESGGGLVQPGGSLRLSCAASGFNIYYSYMHWVRQAPGKGLEWVASIYPSSSSTSYADSVKGRFTISADTSKNTAYLQMNSLRAEDTAVYYCARGAMDYWGQGTLVTVSS
VL: DIQMTQSPSSLSASVGDRVTITCRASQSVSSAVAWYQQKPGKAPKLLIYSASSLYSGVPSRFSGSRSGTDFTLTISSLQPEDFATYYCQQWYYGSLITFGQGTKVEIK
notes: Fab; also called Fv-2914
Turning to B3, the median fluorescence in experiment [1] worked out at 3.72; in experiment [2], 18.9; in [3], 4.61; in experiment [4], 3.59; in [5], 3.82; in experiment [6], 40.3. In addition, the median fluorescence amounted to 31.9 in [7], 8.9 in [8], 5.52 in experiment [9] and 18.4 in experiment [10]. For the same molecule, the binding result in experiment [11], in experiment [12], in experiment [13], in experiment [14] and in [15] was “no binding” throughout.

B4: Fab-2915 (Fab, V domains shown)
VH: EVQLVESGGGLVQPGGSLRLSCAASGFNIYYYSMHWVRQAPGKGLEWVASIYSSYGYTSYADSVKGRFTISADTSKNTAYLQMNSLRAEDTAVYYCARGYHYYPYYSGLDYWGQGTLVTVSS
VL: DIQMTQSPSSLSASVGDRVTITCRASQSVSSAVAWYQQKPGKAPKLLIYSASSLYSGVPSRFSGSRSGTDFTLTISSLQPEDFATYYCQQAYYHSLITFGQGTKVEIK
notes: Fab; also called Fv-2915
Consider B4, for which the median fluorescence was determined as 3.92 in experiment [1]; 22.1 in experiment [2]; 5.05 in experiment [3]; 3.37 in experiment [4]; 3.92 in experiment [5]; 36.9 in [6]. Besides, the results for the median fluorescence in experiment [9] and in experiment [10] were 5.99 and 40.7, respectively. The binding result in [11], in experiment [12], in [13], in experiment [14] and in experiment [15] was “no binding” each time.

B5: Fab-2901 (Fab, V domains shown)
VH: EVQLVESGGGLVQPGGSLRLSCAASGFNISYSYMHWVRQAPGKGLEWVASIYSYSSYTYYADSVKGRFTISADTSKNTAYLQMNSLRAEDTAVYYCARSWYYWSPSSGMDYWGQGTLVTVSS
VL: DIQMTQSPSSLSASVGDRVTITCRASQSVSSAVAWYQQKPGKAPKLLIYSASSLYSGVPSRFSGSRSGTDFTLTISSLQPEDFATYYCQQGGFLITFGQGTKVEIK
notes: Fab; also called Fv-2901
B5: the median fluorescence in experiment [1] came to 3.85; in experiment [3], 4.1; in experiment [4], 3.62; in [5], 3.25; in [6] it was 17.1; in [7] it was 32.8. Also, the median fluorescence amounted to 10.9 in experiment [8], 5.09 in experiment [9] and 47 in experiment [10]. In addition, the binding result in experiment [11], in experiment [12], in experiment [13], in experiment [14] and in experiment [15] was “no binding” in each case.

For the origin of these results see US20210253718A1 (MODMAB THERAPEUTICS, published 2021).
